The values that follow come from paper PMC11672316, “Identification of ANXA1 as a Novel Upstream Negative Regulator of Notch1 Function in AML” (Advanced Science, 2024).

The target in one data set is T1, ANXA1 (Homo sapiens, UniProt P04083).
T1 construct: made in house; host or cells: E. coli BL21
T1 sequence (P04083 1-346): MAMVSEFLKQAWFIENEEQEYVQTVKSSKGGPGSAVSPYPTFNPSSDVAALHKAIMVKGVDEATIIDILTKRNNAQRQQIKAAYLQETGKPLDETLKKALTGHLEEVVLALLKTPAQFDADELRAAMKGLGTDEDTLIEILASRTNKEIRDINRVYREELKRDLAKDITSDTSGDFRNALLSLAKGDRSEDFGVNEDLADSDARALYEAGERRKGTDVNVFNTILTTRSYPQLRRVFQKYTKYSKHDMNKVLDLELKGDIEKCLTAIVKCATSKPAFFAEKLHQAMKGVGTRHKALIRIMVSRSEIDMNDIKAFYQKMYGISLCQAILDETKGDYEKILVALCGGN
The data set can be described thus: BLI analysis, NICD peptides to immobilized ANXA1. Format: binding. The conditions noted are these: for Koff: Octet Red96, ANXA1 immobilized on SSA sensor, peptides in SD buffer. The protocol:
(§1) AlphaFold2 and ClusPro servers were used to dock NICD and ANXA1.^[ [35] ^] The predictions were tested by GST‐pull down assay, bio‐layer interferometry (BLI) analysis, and chemical cross‐linking coupled with mass spectrometry. Details of these procedures are described in Materials and Methods (Supporting Information).
(§2) For bio‐layer interferometry (BLI) analyses performed by Octet Red96 system (Sartorius), purified NICD protein was immobilized on SA sensor (Sartorius) after labeling with Sulfo-NHS-Biotin (EZ-Link) and dialysis. To determine binding kinetics, five concentrations of purified ANXA1 protein were prepared with PBST (PBS containing 0.02% Tween-20) and measured from low to high concentrations by NICD-immobilized biosensors to obtain the association and dissociation sensorgram data. For detection of the interaction between protein and small molecular peptides, purified ANXA1 protein was immobilized on SSA sensor (Sartorius) to detect the binding kinetics of NICD peptides, which were diluted in SD buffer (PBST plus 0.1% w v^-1 BSA). The kinetic parameters Kon, Koff and KD were determined using Octct data analysis software.
Background: In BLI a coated tip is dipped into the sample, and binding shifts an interference pattern.

For data set [1], the target named is T2, GST-tagged full-length ANXA1 (Annexin A1) (human, UniProt P04083 1-346).
T2 construct: Annexin A1 (ANXA1), human, full length; In the BLI with peptides it was immobilised on an SSA sensor; also called GST-ANXA1; source: E. coli BL21, purified (GST resin)
T2 sequence (looked up): T1 sequence (P04083 1-346)
The data set can be described thus: BLI; Octet Red96; purified ANXA1 protein immobilised on SSA sensor; NICD peptides diluted in SD buffer (PBST plus 0.1% w/v BSA). The conditions noted are these: both partners purified.

Another data set deals with NICD. The data set can be described thus: BLI analysis, ANXA1 proteins to immobilized NICD. Type of data set: binding, human. The conditions noted are these: for binding affinity with NICD: Figure 2E; for Koff / Kon / Kd: Octet Red96, biotinylated NICD immobilized on SA sensor; for Koff / Kon: ANXA1 protein in PBST; for Kd: five concentrations of ANXA1 protein in PBST (PBS containing 0.02% Tween-20). The protocol:
as §1, §2

The target in data set [2] is intracellular domain of Notch1 (NICD), protein used in BLI and cross-linking. The data set can be described thus: BLI; NICD with full-length ANXA1 or the C-terminal domain of ANXA1 at increasing concentrations; who was immobilised is not told in the main text (scheme in Figure 2D).
The subject of a further data set is NICD (Δ2,050−2,060). The data set can be described thus: BLI analysis of ANXA1 binding NICD (Δ2,050−2,060). The arrangement: species or system human. As to conditions: Figure S6E. The protocol: as §2
Figure S6. ANXA1 (214−228) and NICD (2,050−2,060) mediate the protein-protein interaction, related to Figure 2J. (A) mRNA expression of ANXA1 detected by qPCR in KG1a-sgANXA1 and HL60-sgANXA1 cells. […] (C) The cell proliferation ability detected by CCK8 assay after 96 hours of culture of KG1a or HL60 cells stably transfected with sgANXA1 or sgControl plasmids. (D) The cell proliferation ability detected by CCK8 assay after 96 hours of culture of KG1a-sgANXA1 and HL60-sgANXA1 cells transiently transfected with ANXA1 (Δ214−228) plasmid. […]

The next data set deals with Notch1. The data set can be described thus: GST-pull down assay of Notch1 from KG1a cell lysate. Format: binding, human. As to conditions: western blotting, 4°C overnight; Figure S4C. As for the experimental part: For GST-pull down assay, the purified GST fusion proteins were incubated with precleared GST resin (Solarbio) for 5 hours at 4°C. The precipitation was washed four times with PBS and captured the Notch1 protein from prepared cell lysates at 4°C overnight. The complexes were washed four times with PBS before being eluted in SDS-gel loading buffer and detected by western blotting.
Figure S4. GST pull down analysis of the interaction between ANXA1 and Notch1, related to Figure 2. (A) Schematic diagram of GST-tagged fusion protein structure of ANXA1 full-length, C-terminal, and N-terminal domain. (B) Coomassie blue-stained SDS gel image of GST-tagged fusion protein of full-length ANXA1, and N-terminal, and C-terminal domains of ANXA1. (C) Western blotting of Notch1 and ANXA1 expression in complexes pulled-down by GST-ANXA1 in sgANXA1#3 and sgControl cells of KG1a.

Bridge positions count the residues as written; N and C are the ends. Ends that are not written are not given here. Peptide text beside a SMILES is read from it.

As a reminder, the Kd is the equilibrium constant for the complex coming apart.

With `CSCC[C@H](NC(=O)[C@H](CC(=O)O)NC(=O)[C@H](CCCCN)NC(=O)[C@H](CC(N)=O)NC(=O)[C@H](C)NC(=O)CNC(=O)[C@H](CC(N)=O)NC(=O)[C@H](CCCCN)NC(=O)[C@H](CC(C)C)NC(=O)[C@@H]1CSSC[C@H](NC(=O)[C@H](C)NC(=O)[C@H](CO)NC(=O)[C@@H](N)CCCCN)C(=O)N[C@@H](Cc2c[nH]cn2)C(=O)N[C@@H](Cc2c[nH]c3ccccc23)C(=O)N[C@@H](C)C(=O)N[C@@H](C)C(=O)N[C@@H](C)C(=O)N[C@@H](C(C)C)C(=O)N[C@@H](CC(N)=O)C(=O)N[C@@H](CC(N)=O)C(=O)N[C@@H](C(C)C)C(=O)N[C@@H](CC(=O)O)C(=O)N[C@@H](C)C(=O)N[C@@H](C)C(=O)N[C@@H](C(C)C)C(=O)N[C@@H](C(C)C)C(=O)N1)C(=O)N[C@@H](CCC(N)=O)C(=O)N[C@@H](CC(N)=O)C(=O)N[C@@H](CC(N)=O)C(=O)N[C@@H](CCCNC(=N)N)C(=O)O` [NICD-5c] (H-KSACHWAAAVNNVDAAVVCLKNGANKDMQNNR-OH; disulfide 4-19), the Koff on ANXA1 was 1.08×10^-2 1 s^-1.

“KSALHWAAAVNNVDAAVVLLKNGANKDMQNNR [NICD-5l]”: the “binding affinity with GST-ANXA1” value on ANXA1 (Figures 2I and S5B) was “increased the binding affinity with GST‐ANXA1 in a dose‐dependent manner”. Further, on ANXA1, the Koff is given as 1.27×10^-2 1 s^-1. Further, the “inhibition of cell proliferation” value is “significantly inhibited the proliferation of KG1a and HL60 cells in a dose‐dependent manner” with KG1a cells (KG1a, CCK8, 72 h, Figure 2K, means ± s.e.m. of three independent experiments); “significantly inhibited the proliferation of KG1a and HL60 cells in a dose‐dependent manner” in the data set on HL60 cells (HL60, CCK8, 72 h, Figure 2K, means ± s.e.m. of three independent experiments).

As for RKKRRQRRR [TAT, reference compound], the “cell damage” value in the data set with KG1a cells and in the data set with HL60 cells was “barely caused cell damage” in each case.

B1: NICD-5l peptide (peptide)
peptide: KSALHWAAAVNNVDAAVVLLKNGANKDMQNNR
notes: also called NICD-5 linear peptide; source: synthetic peptide (solid phase, Wang resin)
On to B1, for which the Kd in data set [1] stood at 154 µM.

B2: NICD-5c peptide (peptide)
peptide: KSACHWAAAVNNVDAAVVCLKNGANKDMQNNR-OH
modifications: bridge 4-19; also: cyclisation chemistry not given here
notes: also called NICD-5 cyclic peptide; source: synthetic peptide (solid phase, Wang resin)
Turning to B2, the Kd in data set [1] turned out to be 223 µM.

B3: GST-tagged C-terminal domain of ANXA1 (domain or fragment)
chain: PSSDVAALHKAIMVKGVDEATIIDILTKRNNAQRQQIKAAYLQETGKPLDETLKKALTGHLEEVVLALLKTPAQFDADELRAAMKGLGTDEDTLIEILASRTNKEIRDINRVYREELKRDLAKDITSDTSGDFRNALLSLAKGDRSEDFGVNEDLADSDARALYEAGERRKGTDVNVFNTILTTRSYPQLRRVFQKYTKYSKHDMNKVLDLELKGDIEKCLTAIVKCATSKPAFFAEKLHQAMKGVGTRHKALIRIMVSRSEIDMNDIKAFYQKMYGISLCQAILDETKGDYEKILVALCG
As for B3, in the data set with NICD, the “binding affinity with NICD” value is “dose‐dependently increased the binding affinity with NICD”, the Koff was 1.68×10^-2 1 s^-1, the Kon is listed as 3.15×10^3 1 Ms^-1 and the Kd is 5.32 µM. The molecule further displayed a Kd in data set [2] of 5.32 µM.

B4: GST-tagged full-length Annexin A1 (ANXA1) (natural protein)
chain: T1 sequence (P04083 1-346)
As for B4, in data set [2], the Kd was 18.4 µM.

B5: ANXA1: Annexin A1, Ca2+-dependent phospholipid-binding protein (protein)
chain: T1 sequence (P04083 1-346)
modifications: left off: GST, end not stated, kept
With B5, the “interaction with NICD lacking 2050–2060” value in the data set with NICD (Δ2,050−2,060) was “the interaction between NICD and ANXA1 was also lost due to the deletion of 2050–2060 amino acid domain of NICD”.

B6: Full-length ANXA1: purified full-length Annexin A1 protein (protein)
chain: T1 sequence (P04083 1-346)
modifications: left off: GST, end not stated, kept
notes: purified full-length Annexin A1 protein
Regarding B6, in the data set with NICD, the “binding affinity with NICD” value was “dose‐dependently increased the binding affinity with NICD”, the Koff is recorded as 2.88×10^-2 1 s^-1, the Kon is on record as 1.57×10^3 1 Ms^-1 and the dissociation constant Kd came out at 18.4 µM.

B7: GST-tagged ANXA1: GST-tagged fusion protein of full-length ANXA1 (protein)
chain: T1 sequence (P04083 1-346)
modifications: left off: GST, end not stated, kept
Consider B7, for which the “pull-down of Notch1 from cell lysate” value in the data set on Notch1 is listed as “Notch1 in the cell lysate could be pulled down by GST‐tagged ANXA1”.
